Source: US8911953B2, “TDF-related compounds and analogs thereof, analogs and bioactive fragments” (Thrasos Innovation, Inc., priority 2005, dated 2014)
Read-outs that look alike come from different tables or passages of the source. One block for each molecule: values may come before it. Positions of bridges follow the written chain, without caps; N, C: chain ends. No end group written: not given here.

Assays:
[1] = test system: rat osteosarcoma (17/2.8) cells; test: Rat osteosarcoma (ROS) cell-based alkaline phosphatase assay; conditions: 0.02-200 uM, 2 days, relative to BMP-7 standard
Experimental: BMP interactions with Type I and Type II receptors can induce alkaline phosphatase activity, a marker for osteoblast activity, in ROS cells. An assay procedure as described in Maliakal, J. C., Asahina, I., Hauschka, P. V., and Sampath, T. K. (1994) Growth factors 11, 227-234, was used to determine the biological activities of TDFRP compounds. In a typical experiment, rat osteosarcoma (17/2.8) cells are plated in 96 well plates (3.0×10^4 cells/well) and incubated overnight at 37 C in 5-6% CO2 incubator. The next day, healthy and confluent cells are treated with increasing concentrations of BMP-7 standard (1-10,000 ng/ml) served as positive control or TDFRP compounds (0.02-200 uM) prepared in medium containing 1% FBS and incubated for 2 days at 37 C in 5-6% CO2 incubator. The cellular content of alkaline phosphatase activity is determined by the method of Reddi and Huggins (Reddi, A. H., and Huggins, C. B (1972) Proc. Natl. Acad. Sci. USA 69, 1601-1605). Enzyme estimations are performed in 96 well plates. Following removal of culture medium, cells are washed with pre-warmed PBS (150 ul) and incubated in 100 ul of pre-warmed 1% Triton X-100 for 30 minutes at 37 C. Plates are centrifuged for 10 minutes at full speed, and recovered samples (15 ul) are assayed for enzyme activity by adding 90 ul p-nitrophenyl phosphate (Sigma) as a substrate in 0.05 M glycine-NaOH buffer, pH 9.3 and incubating for 20 minutes at 37 C. The reaction is stopped by adding 75 ul of 0.2 N NaOH/well and absorbance at 405/490 nm is measured on a Dynatech MR 700 plate reader. Results are expressed as relative activities compared to a BMP-7 standard.
BMP interactions with Type I and Type II receptors can induce alkaline phosphatase activity, a marker for osteoblast activity, in ROS cells. An assay procedure as described earlier (Maliakal, J. C., Asahina, I., Hauschka, P. V., and Sampath, T. K. (1994) Growth factors 11, 227-234) was used to determine the biological activities of TDFRP compounds. In a typical experiment, rat osteosarcoma (17/2.8) cells are plated in 96 well plates (3.0×10^4 cells/well) and incubated overnight at 37° C. in 5-6% CO2 incubator. […] The cellular content of alkaline phosphatase activity is determined by the method of Reddi and Huggins (Reddi, A. H., and Huggins, C. B (1972) Proc. Natl. Acad. Sci. USA 69, 1601-1605). […] The reaction is stopped by adding 75 ul of 0.2 N NaOH/well and absorbance at 405/490 nm is measured on a Dynatech MR 700 plate reader. Results are expressed as relative activities compared to a BMP-7 standard.

ALK-3 = ALK-3 (Homo sapiens, UniProt P36894); test: Radioligand receptor binding assay (competition with 125I-labeled TDF-1)
From the text: Radioligand Receptor Binding Assays for ALK-3, ALK-6 and BMPR-2:
The assays are based on competition between ^125I-labeled TDF-1 (BMP-7 or OP-1 or other BMPs) and candidate TDFRP compounds or unlabeled TDF-1 for binding to respective receptors (ALK-3, ALK-6 or BMPR-2 or other BMP receptors or co-receptors). In brief, the procedure involves immobilization of receptor on 96 well Removawell plates, blocking the wells with 3% BSA in PBS and subsequently washing the wells. Increasing concentrations of unlabeled TDF-1 or TDFRP compounds or control (unlabeled TDF-1) prepared in binding buffer are then added. Incubate plate for 1 hour at room temperature, and then add a fixed amount of ^125I-labeled TDF-1 (250,000 to 350,000 cpm) to the wells and further incubate in cold (4° C.) for 20 hours. Aspirate the contents of the wells and wash the wells four times with a wash buffer, and count the receptor bound ^125I-labeled TDF-1 in an auto gamma counter.
Using this procedure, TDFRP compound binding to select ALK receptors are assessed. Accordingly, TDFRP compounds that preferentially bind select ALK receptors can be identified. For example, TDFRP compounds that preferentially bind to ALK-3 receptor compared with binding to other ALK receptors, e.g., ALK-6 (FIGS. 1, 15).
A. Radioligand Receptor Binding Assays For ALK-3, ALK-6 and BMPR-2: […]

[2] = test system: renal tubular epithelial cells; conditions: 100 ng/ml, 48 hours; cited from earlier work
NTN mice = conditions: cited from earlier work

ALK-3, sequence (P36894 24-532, species assumed): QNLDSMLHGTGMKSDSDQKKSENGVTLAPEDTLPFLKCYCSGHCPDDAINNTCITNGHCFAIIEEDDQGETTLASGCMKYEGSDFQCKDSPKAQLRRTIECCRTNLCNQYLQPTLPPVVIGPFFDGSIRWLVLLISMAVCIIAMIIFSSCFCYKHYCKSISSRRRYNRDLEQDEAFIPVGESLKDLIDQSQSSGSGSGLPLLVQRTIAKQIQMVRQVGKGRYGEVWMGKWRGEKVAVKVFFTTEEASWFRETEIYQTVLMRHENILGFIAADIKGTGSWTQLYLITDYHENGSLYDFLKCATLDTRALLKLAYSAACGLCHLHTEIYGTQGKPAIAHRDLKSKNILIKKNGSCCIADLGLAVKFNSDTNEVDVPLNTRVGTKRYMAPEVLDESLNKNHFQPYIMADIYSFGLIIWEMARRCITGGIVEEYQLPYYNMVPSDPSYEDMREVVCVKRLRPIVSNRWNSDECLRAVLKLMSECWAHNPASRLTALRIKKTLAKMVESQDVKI

binding to BMP Type I ALK-3 receptor compared to ALK-6 receptor (ALK-3): binds preferentially | binding to BMP Type I ALK-3 receptor compared to ALK-6 receptor (ALK-3; listed as SEQ ID NO 45): selectively binds
Molecule: CYFDDSSNVLCKKYRS (disulfide 1-11 (inferred); not fully specified) [SEQ ID NO:45]
induction of alkaline phosphatase activity [1]: did not induce

B1: BMP-7: recombinant human mature BMP-7 (BMP-7 or TDF-1), positive control therapy (protein)
chain: STGSKQRSQNRSKTPKNQEALRMANVAENSSSDQRQACKKHELYVSFRDLGWQDWIIAPEGYAAYYCEGECAFPLNSYMNATNHAIVQTLVHFINPETVPKPCCAPTQLNAISVLYFDDSSNVILKKYRNMVVRACGCH
TGF-beta1 induced EMT [2]: reverses | progression to chronic renal disease (NTN mice; about 300 micrograms/kg, starting after one week of NTN): prevent progression to chronic renal disease | renal pathology (NTN mice; treatment from week 3 or week 4 through week 6): almost completely reversed renal pathology
